Tests used:
[1] = target: T1, recombinant human ErbB2/Fc chimera (human, UniProt P04626 23-652); test: SPR (Biacore 3000), purified Nanobody over immobilised rhErbB2-Fc
T1 construct: bought from R&D Systems; also called rhErbB2-Fc; rhErb2-Fc; Fc part of the bought chimera not given; not described

[2] = target: T2, Epidermal Growth Factor Receptor 2 (HER2) (human, UniProt P04626 23-1255); test: FMAT competition on SKBR3 cells, periplasmic extract
T2 construct: whole, on cells; the cell line is named under assay; also called ErbB-2; ERBB2

[3] = target: T1, recombinant human ErbB2/Fc chimera; test: SPR (Biacore 3000), periplasmic extract over immobilised rhErbB2-Fc
[4] = target: T1, recombinant human ErbB2/Fc chimera; test: SPR (Biacore T100), Nanobody over immobilised rhErbB2-Fc

| koff [1] [s⁻¹] | % blocking of Herceptin binding [2] [%] | koff [3] [s⁻¹] | Binder | other results |
| --- | --- | --- | --- | --- |
| – | > 90 | 0.00153 | 2F3 (VHH, C-term myc-His6 tag) VHH: EVQLVESGGSLVQPGGSLRLSCAASGFTFDDYAMTWVRQAPGKGLEWVSSINWSGTHTDYTGSVKGRFTISRNNANNTLYLQMNSLKSDDTAVYYCAKNWGDAGTTWFEKSGSAGPGTQVTVSS | – |
| – | > 90 | 0.0013 | 2G2 (VHH, C-term myc-His6 tag) VHH: EVQLVESGGGLVQPGGSLRLSCVASGFSLDDYGMTWVRQAPGKGLEWVSSINWSGTHTDYTDPVKGRFTISRDNAKNTLFLQMNNLTPEDTAVYYCNRGWKIVPTDLGGHGTQVTVSS | – |
| – | > 90 | 0.00107 | 2F4 (VHH, C-term myc-His6 tag) VHH: EVQLVESGGGLVQPGGSLRLSCVASGFSLDDYGMTWVRQAPGKGLEWVSSINWSGTHTDYADSVKGRFTISRDNAKNTLFLQMNSLRSEDTAVYYCNQGWKIVPTDRRGHGTQVTVSS | – |
| – | > 90 | 0.00177 | 2F1 (VHH, C-term myc-His6 tag) VHH: EVQLVESGGGLVQPGGSLRLSCVASGFSLDDYGMTWVRQAPGKELEWISSINWSGTHTDYADSVKGRFTISRDNAKNTLFLQMNSLTPEDTAVYYCNQGWKIVPMDRRGHGTQVTVSS | – |
| – | > 90 | 0.0012 | 2D5 (VHH, C-term myc-His6 tag) VHH: EVQLVESGGGLVQPGGSLRLSCVASGFSLDDYGMTWVRQAPGKGLEWVSSINWSGTHTDYADSVKGRFTISRDNAKNTLFLQMNSLRSEDTAVYYCNQGWKIVPTDRGGHGTQVTVSS | – |
| ~0.001 | – | – | 27C3-35GS-2D3 (bispecific antibody, biparatopic Nanobody; C-term myc-His6 tag) EVQLVESGGGLVQPGGSLRLSCAASGFTFDDYATSWVRQAPGKGPEWVSAINSGGGSTYYADSVKGRFTISRDNAKNTLYLQMNSLKPEDTAVYYCARPRGSSLYLLEYDYWGQGTQVTVSSGGGGSGGGGSGGGGSGGGGSGGGGSGGGGSGGGGSEVQLVESGGSLVQPGGSLRLSCAASGFTFDDYAMSWVRQVPGKGLEWVSSINWSGTHTDYADSVKGRFTISRNNANNTLYLQMNSLKSEDTAVYYCAKNWRDAGTTWFEKSGSAGQGTQVTVSS | – |

More lines, now with the values behind:

| Binder | koff [1] [s⁻¹] | % blocking of Herceptin binding [2] [%] | koff [3] [s⁻¹] | other results |
| --- | --- | --- | --- | --- |
| 27A3-35GS-2D3 (bispecific antibody, biparatopic Nanobody; C-term myc-His6 tag) EVQLVESGGGLVQAGGSLSLSCVASGRFFSTRVMAWYRQTPGKQREFVASMRGSGSTNYADSVRGRFAISRDNAKNTVYLQMNTLKPEDTAVYYCRDINEDQWGQGTQVTVSSGGGGSGGGGSGGGGSGGGGSGGGGSGGGGSGGGGSEVQLVESGGSLVQPGGSLRLSCAASGFTFDDYAMSWVRQVPGKGLEWVSSINWSGTHTDYADSVKGRFTISRNNANNTLYLQMNSLKSEDTAVYYCAKNWRDAGTTWFEKSGSAGQGTQVTVSS | ~0.0001 | – | – | – |
| 2F5 (VHH, C-term myc-His6 tag) VHH: EVQLVESGGSLVPPGGSLRLSCAASGFTFDDYAMSWVRQAPGKGLEWVSSINWSGTHTDYTDSVKGRFTISRNNANNTLYLQMNSLKSEDTAVYYCAKNWGDAGTTWFEKSGSAGQGTQVTVSS | – | > 90 | 0.00157 | – |
| DUMMY-35GS-47D5 (bispecific antibody, control: dummy Nanobody fused N-terminally to 47D5; C-term myc-His6 tag; also called Dummy-47D5) EVQLVESGGGLVQAGGSLRLSCAASGRTFRSYPMGWFRQAPGKEREFVASITGSGGSTYYADSVKGRFTISRDNAKNTVYLQMNSLRPEDTAVYSCAAYIRPDTYLSRDYRKYDYWGQGTQVTVSSGGGGSGGGGSGGGGSGGGGSGGGGSGGGGSGGGGSEVQLVESGGGLVQPGGSLRLSCAASGSIFGFNDMAWYRQAPGKQRELVALISRVGVTSSADSVKGRFTISRVNAKDTVYLQMNSLKPEDTAVYYCYMDQRLDGSTLAYWGQGTQVTVSS | – | – | – | Kd [4]: 3.21 nM; koff [4]: 0.000869 s⁻¹; kon [4]: 271000 M⁻¹ s⁻¹ |
| 27H5-35GS-2D3 (bispecific antibody, biparatopic Nanobody; C-term myc-His6 tag) EVQLVESGGGLVQAGGSLRLSCAASGFTFDDYGIGWFRQASGKEREGVSCITSSDGSTYYADSVKGRFTISSDNAKNTVYLQMNSLKPEDTAVYYCAALPFVCPSGSYSDYGDEYDYWGQGTQVTVSSGGGGSGGGGSGGGGSGGGGSGGGGSGGGGSGGGGSEVQLVESGGSLVQPGGSLRLSCAASGFTFDDYAMSWVRQVPGKGLEWVSSINWSGTHTDYADSVKGRFTISRNNANNTLYLQMNSLKSEDTAVYYCAKNWRDAGTTWFEKSGSAGQGTQVTVSS | ~0.001 | – | – | – |
| 27D1-35GS-2D3 (bispecific antibody, biparatopic Nanobody; C-term myc-His6 tag) EVQLVESGGGLVQPGGSLRLSCVASGFSLDDYGMTWVRQAPGKGLEWVSSINWSGTHTDYADSVKGRFTISRDNAKNTLFLQMNSLTPEDTAVYYCNQGWKILPAERRGHGTQVTVSSGGGGSGGGGSGGGGSGGGGSGGGGSGGGGSGGGGSEVQLVESGGSLVQPGGSLRLSCAASGFTFDDYAMSWVRQVPGKGLEWVSSINWSGTHTDYADSVKGRFTISRNNANNTLYLQMNSLKSEDTAVYYCAKNWRDAGTTWFEKSGSAGQGTQVTVSS | ~0.0001 | – | – | – |
| 27B7-35GS-2D3 (bispecific antibody, biparatopic Nanobody; C-term myc-His6 tag; also called 2B7-35GS-2D3) EVQLVESGGGLVQPGGSLRLSCAASGFTFSSYAMSWVRQAPGKGLEWVSAISSGGGSITTYADSVKGRFTISRDNAKNTLYLQMSSLKPEDTALYYCAKARSSSSYYDFGSWGQGTQVTVSSGGGGSGGGGSGGGGSGGGGSGGGGSGGGGSGGGGSEVQLVESGGSLVQPGGSLRLSCAASGFTFDDYAMSWVRQVPGKGLEWVSSINWSGTHTDYADSVKGRFTISRNNANNTLYLQMNSLKSEDTAVYYCAKNWRDAGTTWFEKSGSAGQGTQVTVSS | ~0.001 | – | – | – |
| 2C2 (VHH, C-term myc-His6 tag) VHH: EVQLVESGGGLVQPGGSLRLSCVASGFSLDDYAMTWVRQAPGKGLEWVSSINWSGTHTDYADSVKGRFTISRDNARNTLFLQMNSLTPEDTAIYYCNQGWKILPTDRRGHGTQVTVSS | – | > 90 | 0.00412 | – |
| 2D1 (VHH, C-term myc-His6 tag) VHH: EVQLVESGGGLVQPGGSLRLSCVASGFSLDDYGMTWVRQAPGKGLEWVSSINWSGTHTDYADSVKGRFTISRDNAKNTLFLQMNSLSPEDTAVYYCNRGWKILPTNRGSHGTQVTVSS | – | > 90 | 0.00127 | – |
| 2H1 (VHH, C-term myc-His6 tag) VHH: EVQLVESGGGLVQPGGSLRLSCVASGFSLDDYGMTWVRQAPGKGLEWVSSINWSGTHTDYADSVRGRFVISRDNAKNTLFLQMNSLSPEDTAVYYCNQGWKIIPTDRRGHGTQVTVSS | – | > 90 | 0.00109 | – |
| 2B3 (VHH, C-term myc-His6 tag) VHH: EVQLVESGGGLVQPGGSLRLSCVASGFSLDDYGMTWVRQAPGKGLEWVSSINWSGTHTDCADSVKGRFTISRDNAKNTLFLQMNSLTPEDTAVYYCNQGWKIIPTDRRGHGTQVTVSS | – | > 90 | 0.00125 | – |
| 2D3-35GS-2D3 (VHH, bivalent 2D3, 35GS linker; C-term myc-His6 tag) EVQLVESGGSLVQPGGSLRLSCAASGFTFDDYAMSWVRQVPGKGLEWVSSINWSGTHTDYADSVKGRFTISRNNANNTLYLQMNSLKSEDTAVYYCAKNWRDAGTTWFEKSGSAGQGTQVTVSSGGGGSGGGGSGGGGSGGGGSGGGGSGGGGSGGGGSEVQLVESGGSLVQPGGSLRLSCAASGFTFDDYAMSWVRQVPGKGLEWVSSINWSGTHTDYADSVKGRFTISRNNANNTLYLQMNSLKSEDTAVYYCAKNWRDAGTTWFEKSGSAGQGTQVTVSS | ~0.0001 | – | – | – |
